Measured values published in a protein production outcome set (Wang et al. 2014).

Assay: label from the status in PepcDB records

MGLFQIKPDIHYGANSLDILRTLEMEKVFLVTDENMVKLKVINKVTNILKSRGIEAKVYSDVKPDPTDEEIIKGMLELSAHDPDCIIALGGGSPIDACKSMIYFTNQIKRAMGQNKKPKFIAIPTTSGTGSEVTSYAVVTTKDKKIPLSDSEMLPDIAILNPEFIKTLSPSIIADTGMDVLTHAIEAYVSKSRNLFTNTFAIGAIKTVFADLVSNFENPQLEKERINLQIASCMAGVAFSNAGLGINHSIAHSLGARFHKPHGRLNAVIMSEVIQFNARNKNAAKYYREIVEALGFSPKEDVEGVEILAKAIKMRAAKMGIPNSLSELGIPKEQYFDEMEGIIDQIENDMCTGENPRRFSRIEMKQLLTDLY
protein production: not failed

MNFFKILLMELRAIVSHKGVLLILIGAPLIYGLLYPLPYLRDIVTQQKIALVDEDNSFLSRQLAFMAQSSNELEIAFFSPSMLEAKKLLKEEKIYGILHIPSHFEANIHKQVPVTIDFYANSNYFLIYGALANAVVESINALNDEIRFKRNAQIEEAELGTDGIKIRPIALYNPSEGYLNYALSSVFIFILHQVMLIASSMFTSSRRLELALLDRKQIALRLCTRLLVFMGAFSVFILWYFGALFSFYGIERHGSALMVFLNSLIFMLATLSLGSFLGAWIKNEAHTTQIVLISSLPLIFMMGFVWPFESLPSYLQVFVQIVPAYHGISLLGRLNQMHAEFIDVSFHFYALIAIFIASFIGSVFKLSSLKKACENA
protein production: failed

MTSETNIRTLVVDDSDFFAEMTADTLTQQHDIESVAANSAAEALERLEGGGFDCVVSDYEMPEMDGLELLEAIRETNPSIPFILLTGRGDEETASAAIAAGVADYLLKLEVVEDKQYGRLANRIENVVSQERTRKKFESLVSDSPDGIVHLTTNGTILSVNPSMAGRLGADPDTLVGQQLSAVMDSEAANQRLEAGKSAVENGTATRSEDAVGGRHYHNQYIPVDSHRKSDTFQLVSRDITERVERQRELERQNDRLEEFASVVSHDLRNPLNVAQGAVDLLGEPADSKEAELVAKIDRSLDRMGCIIEDVLTLARQGQTVSDPQETELSTLASTAWTWIEAEQASMSVASSTKLAADSGRAQDLLANLFRNAIEHNDGDVEIEIGLLESNDGFYIADNGEGVEGDAEDVFEMGYSSTKDGTGFGLAIVEQVAEAHGWEVSLTESDSGGARFEVSSVELHD
protein production: failed

MKRLMFIGPSQCGKTSLTQSLRGEALHYKKTQAIEWSPMAIDTPGEYLENRCLYSALLTSACEADVIALVLNADAQWSPFSPGFTAPMNRPTIGLVTKADLAEPQRISLVAEWLTQAGAQQIFITSALNNSGLDAVLDFLNSKEPLCLTKLEHHHHHH
protein production: not failed

MNYDDPKKKVGRNIKRLRLKAGIKSQAALAELCGWKSQSRVGNYEAGTRAVSAIDAETLAKVLNVTPAEILYGENNKDDDFVSMPSAQYSSGPYEEEDPFQLFKPKQELQNAEWHAGFELWDGDTPLRDDEVALPFYREVELAAGSGSTFVQENGGCKLRFAKSTLKKSRVEPSNAACVTVSGNSMLPVLRHGTTVGVDTSKKSIIDGEMYAIDHDGMLRVKMLYRTPGGGIRIKSYNNDEFPDEFIPPEKASDIKIIGWVFWWSVLNVWNN
protein production: failed

MWVKPLREASQGKKEEEIHIKTSSSSSARSLAPLLVLKLIRSLSSSSARLQASQLVLKLLCSSSSSSACPQALQLALKLLCWSSSSSTGPQAPQLVFKLSSSSLSSARLQAPPLNDHLLA
protein production: failed

MSLSQEMIKKWLDEEGFLRMEVPDENARFHYVVNYPEDHVIDIIQPAGKDDMILIACATSVSPEHQAGIRALSMEKRTEFIWKVRFTLNRFGVDFQLDHPENVLNSYLVTDEIFFDGLSKDRLISSIKNVFRAKLQVMWMIQERFGEERPEHDSMYVEGHHHHHH
protein production: not failed

MRVKICGITRLEDALLAEALGAFALGFVLAPGSRRRIAPEAARAIGEALGPFVVRVGVFRDQPPEEVLRLMEEARLQVAQLHGEEPPEWAEAVGRFYPVIKAFPLEGPARPEWADYPAQALLLDGKRPGSGEAYPRAWAKPLLATGRRVILAGGIAPENLEEVLALRPYALDLASGVEEAPGVKSAEKLRALFARLASLRMEG
protein production: not failed

MEPCELSANTVIAHPRALTDKMTLIRDAGPSKFQVFPTPISEQGDAYYDAKRQALYDHYHPLEISPVIPIDEKTKLMEEWWGKTHELLIEGGLTYDAIKKSVANSSIAFREGVSELFEFLEKKEIPVLIFSAGLADVIEEVTLKSISLLELLSYFCCLYNEYAFVAYSHSYQVLRQNLDRTFKNVKIVSNRMVFNDDGQLVSFKGKLIHVLNKNEHALDMAAPLHDRLGVDIGEEDEENVNMKERRNVLLMGDHLGDLRMSDGLDYETRISIGFL
protein production: failed

MPAIEVGETFTETRTFRPEDVDQFTALSGDDQPRHTEPDGDGRRMVQGLLTASLLTSIGGDLEVLASRMDLQFQRPVYTGETLVCELTVVSADPHTDGGVALVGDVAVRRVNRDDNSGQADTAAPNSADSAPAGTVVLEATVEGLIRE
protein production: failed

MPHFLAKLDFKPLEYPLIEGDFCFHREFLSLKNPTKSCVYASFKDRIFLLQKIRRANDFLIKSEKATPLKREVLKQALRIYSQSFEVISHNLQENSKHASGKKTLDLGTFEDFIQKNQAPILIEIGFGSGRHLIELAKNNPTKTCLGIEIHTPSIAQALKQIELLDLKNLHILQGDGRLVLESMPNHRCEKIFVHFPVPWNEKKHRRVLSEKFLNEALRVLKPRGFLELRTDDSLYFEDSLKLALKNFQCEIEIKKNAQIPVVSKYEARWNKLKKDIYDLRIYSLEWNETPFDNHAFDFSFDTITISKKSVGTILKTKKIIQEGYFVHVCNIYENKGDFLVELSMGDFDWPVRLFVLLTENQIFYLNKSPLKTLNNHKAHLLLQNILSQKGIG
protein production: failed

MNRVIACIDSSPCINAIAEAAAWVARQTKRELVLLQILDYYPASYHLGEISGVIGFESNAMLLKELAELEQKQSDLAIDYSNNLLKHISDMILEKYGIQSTKIQEKGDFLEQSFNVLRETDFVIIGKVGERAAEKNKPIGSNVENFIRGANCTVMTVGEHFKIPTRFIFAYEYSPTCLNLMQRIAQSDLLKTLQCHLLYVGDHPEVLKDPEEFLKNAGLDVITVYRYGDVAENILEYQKELGIQMIVLGAFSHSKIHQFFLGSIATSIFRNATVPLLVAK
protein production: failed

MSMELFEVHEGKAKVLVPKAKTIYDSPVFYNPRMAPNRDVVVLLLNVLKPKIVLDALSATGIRGIRFALETPAEEIWMNDINELAYELMKKNVLLNFKGTLKENAKRAIFEGEKTIVINNDDANRLMAEKHRYFHFIDLDPFGSPMEFLDTALRSVKRKGILGVTATDGAPLCGAHPKACLRKYLAVPLRGELCHEVGTRILVGVIARYAAKYDLGMEVLLAYYKDHYFRAFVKLKDGAKKGDETLENLGYVYFDEKTGRFEVEKSFLSTRPNAYGPLWLGPLKNEKVVGEMLELLVSGFEVANYREVLKLLHMLHEELDIPLFYDTHALGKRLKIEPKKLGEIIKELKSMGYEATRTHFSPTGIKTNAPYEVFVEVMRKN
protein production: failed

MSQQPESDRTEGDLRNTGMELKHERTWDYELDRIVDAVEERDAMKVGLQFPEGLKRRAGRVADDLRRLLPDETTVLLSGQPCYGACDLDTYMMRRTDVFVHFGHSPMKESDKIIYVPLFSNVEVTPIMEEARAELAAPEEDDAVGLVTTAQHMNRFDEMQAWLEERGYTVETRRGDERLTHEGQVLGCNYASADVDADQILYVGGGKFHPLGLAMEHPDKKVIIADPVNNAVHVADTEQFMKQRYAAVHKAMDAEEWGVIFCTKIGQGRWDTAEEIVEANDNAYLITMDEVTPDRLTNFGFDAYVNTGCPRITTDDGPQFKQPMLTPGEYKIAIGEKPMDSLSFDTFHGTW
protein production: failed

MQGFTAYLVGFAIVAGFAVALGFIFGIFNQIVAQLNTDPNNPMISQEFVDAINLAQSLGGTGLTLAIAALIVGLAMLLIAVIRSYSGV
protein production: failed

MSLDCRVRESIQEEAKGIVAPPELKEKVIVQIKMNQGGRKRKKRLIAGVLAAAFLIPTTGFAYQSIMADGIYGSFENLKKHAGTMTLEAYMRFSAKLSEAKDEMGTKEYEVFTKELKKLTNAKLAYGDSNGNIDYDALSSEKREEMKKVSMGLQPYFDKLNGHKSSKEVLTQEEFDRYMEALMTHEIVRVKTKSTGAIKVEEIPEAYKERFIKAEQFMEYVDEKVR
protein production: not failed

MADLYTVVSSIILLFIVLDPVGVSPYVASIVARRPEGERERIVRTALASAGAILVAFTLIGVAVLDILGVSMDEFKVAAGLLLLIYATADLFEIKIGYSEPSGDEVAIFPLATPLLAGPGSIATVMYIMGSSGIAVALIAILVNLVLAYPILHASLKLVRLLGRHGSLLVAKFTAFLMVGFAVSIIFDGLRGIVPGVFS
protein production: failed

MSIEMKTQLGTVDVSKDVVATIAGGAAVDCYGIVGMASQKQIKDGLSELLGRENFRRGVVIREEEDEIHIDMYIIVSYGTKISEVAYNVQTKVKYQLETMLGIDVDSVNIFVQGVRVTNPLEHHHHHH
protein production: failed

MASHIVGYPRMGPKRELKFALESFWDGKSSADDLQKVSADLRSDIWKQMSAAGIKYIPSNTFSHYDQVLDTTAMLGAVPSRYGFTSGEIGLDVYFSMARGNASVPAMEMTKWFDTNYHYIVPELGPEVKFSYASHKAVNEYKEAKALGVETVPVLVGPVSYLLLSKLAKGVDKSFDLLSLLPKILPVYKEVIAELKAAGASWIQLDEPLFVMDLEGHKLQAFSGAYAELESTLSGLNVLVETYFADIPAEAYKTLTSLKGVTAFGFDLVRGTKTIDLIKSGFPQGKYLFAGVVDGRNIWANDLAASLITLQSLEGVVGKDKLVVSTSCSLLHTAVDLINETKLDAEIKSWLAFAAQKVVEVDALAKALAGQTNESFFTANADALSSRRSSPRVTNESVQKAAAALKGSDHRRTTEVSARLDAQQKKLNLPILPTTTIGSFPQTVELRRVRREYKAKKISEEDYVKAIKEEIKKVVDIQEDLDIDVLVHGEPERNDMVEYFGEQLSGFAFTANGWVQSYGSRCVKPPVIYGDVSRPKPMTVFWSSTAQSMTKRPMKGMLTGPVTILNWSFVRNDQPRHETCYQIALAIKDEVEDLEKGGIGVIQIDEAALREGLPLRKAEHSFYLDWAVHSFRITNCGVQDSTQIHTHMCYSNFNDIIHSIIDMDADVITIENSRSDEKLLSVFREGVKYGAGIGPGVYDIHSPRIPSTDEIADRINKMLAVLEQNILWVNPDCGLKTRKYTEVKPALKAMVDAAKLIRSQLGSAK
protein production: failed

MTLDAAPHLHPAVLSPRPQPGRHRRDLHQSSRAFVLLTCIVATLALMLSLPAGLQAAEATVIVPFGGGILRDDAQTVAAAAARIEALRLSTASLGRDSAALFSAETPARLLSLTAATFEAHTTATSVVGYPPEVEVAVNIRTTPRGGDAATALRAALRAPEKLELREGILLHTRENLLEARQLALDAARHRQKAGTESESPYDRRFAALARTLRSLDTLERALSYLDGVWRHPIILAADMRQVVEASPEMPLGWTFLGEALLQLDRPQDAVEALDRALALPDAPVRARLARGIANLRLDLTALAVDDLSRVLREAPRLAPAWRARGAARMMRREYGPMCEDFIQACNLGDCEGLASARDAGHCLAPARPQTVKADD
protein production: failed

MKVGSQVIINTSHMKGMKGAEATVTGAYDTTAYVVSYTPTNGGQRVDHHKWVIQEEIKLEHHHHHH
protein production: failed

MDKTIYEQMLLKNYKGAEGAEEAWDARANHFYKSQQRGRSELVEKVTAILQERGLLAGADLLDIGGGSGRYAVPFAAHAEHVTITDISANMLELARRNAQEAGVTNLTYAKLEWTGADLAAWQWRKRFDLVFASMCPAIRSPEGLYKMLEAAKGFCLINQYIEATDSLSAYLTQVLDPPRSYEPYNDRDMVQAVFNLLWLEGYEPEICYLRQREVTSFTVEGAVEQYGGRYHQAAQLKRMDLAELISRHAGQVTFSVDSKATLAMILWKV
protein production: failed

MHVFYSEERRGNLLILREGEVKHFRVRRIEKDEEFGVIHEGKIYVCKVRREDKREISCEIVEELETKLPPKDITLYQSVTVDLKTMDTIVRQATELGVLTFVPIISERSFQKEEAILKKTEKWKRIVIEAMKQSRRPIPMEIKKPVRLSDLIPESEENIILDNFYEGVKPKDVNLEAKTYSVVVGPEGGFSKRESQILREKGFKSVLLEPYTLRTETAVVSIVSILMNF
protein production: not failed
